± gives the uncertainty stated by the source.

The nature of this series: amyloid nucleation score (Sup35N fusion, yeast selection) (log enrichment); library NNK2; higher = more nucleation; inactive = no reads after selection. A digest of the protocol:
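Three technical output replicates were used for random libraries. Psi-negative yeast expressing peptides of 20 random codons fused to Sup35N were induced with 100 μM copper sulfate for 24 hours and grown 7 days at 30°C on medium lacking adenine and uracil, and input and output plasmid inserts were Illumina-sequenced, excluding sequences with under 100 input reads. The nucleation score is the DiMSum log enrichment of output over input reads, centred on the mode score of non-aggregating sequences.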
In turn, IFCADMVLNFGGMCPARERA returned an amyloid nucleation score of 0.038 ± 0.8. In the case of SHRPWVWGQNISMKYRSVLK it was 3.7 ± 0.057; in that of FCLLPIDQPVTGIFLVR, -0.158 ± 0.63. In the case of LLVKRCSAKPNLRRLLKLMC it was -0.097 ± 0.76; in that of GNCPLMPMKFRNRMSHSAFS, 0.517 ± 0.4; in that of FSSIDPPNTRSAVSFRMTSP, 0.065 ± 0.65. The result for FTWCRWVFWRNCYNDMEEDA reads -1.01 ± 1.1; that for NGVRSWSQHLWKRGRWEG, 1.69 ± 0.3. On to TFSCCACWGCFTRNV, for which the amyloid nucleation score was 10.55 ± 0.047. For GLEFFLGYGYIAARHWVSGS, the amyloid nucleation score was 1.59 ± 0.13. The substance DCLYGRFRHRHG yielded an amyloid nucleation score of 5.723 ± 0.035. As to KCSSCEF, the amyloid nucleation score is 0.768 ± 0.47. In the case of SYADRVILLVSCVVPWAPLR it was 3.31 ± 0.15; in that of SPFNRLHY, -0.101 ± 1.1; in that of PWAMDQVTLSMVLPFMWPRL, 0.456 ± 0.39.

TRTNEVSGNAESKNCRCYIG came in with an amyloid nucleation score of 0.404 ± 0.29. In the case of SMIDGWGRVFHYAVVQISMN it was 6.158 ± 0.032. The result for TVIFVCHFTKVDCVSNTQSY reads 3.42 ± 0.1; that for WLFIVFSTLS, -0.19 ± 1.

GFSSHSSFNHTI had an amyloid nucleation score of 1.37 ± 0.32.

Consider PTGGRLYSV, for which the amyloid nucleation score turned out to be 0.012 ± 1. Take TLFRKL: the amyloid nucleation score is -0.543 ± 0.44. In the case of LPLLCFTDV it was “inactive”; in that of VLNGGRGVIRLYRVFAGKRF, -1.06 ± 0.47; in that of RIMSCNQITNIICVL, 4.89 ± 0.078.

On to VFSDWVSSKPLRSVVPCFCN, for which the amyloid nucleation score was -0.496 ± 1.1. Consider TTRIS, for which the amyloid nucleation score entry was “inactive”. The result for GREVHALPHEGMVDRSGRGT reads 1.29 ± 0.16. The result for FYLIIDPIPMDCSGIIVNCY reads “inactive”; that for VHFCLKH, 0.241 ± 0.22; that for YIIRRYWARPSYVNSFM, -0.31 ± 0.74. The result for VVIILNDTNFLMINMVQRVM reads 4.327 ± 0.039; that for APHSLVVGCTVVLF, 7.589 ± 0.037; that for GGTSAAS, 1.01 ± 0.22. For the substance LSIFKGNTNLLLSYVPALNI, the amyloid nucleation score was -1.29 ± 0.64. The result for LSSLYFSLFNYYLFNRFIFN reads “inactive”. The result for KAWFLESSKYSYRSWFR reads -0.641 ± 0.38; that for SRSVLSNSDTPTNNAVNCVA, -0.027 ± 0.56. In the case of RSVACVDDMHE it was 4.916 ± 0.049; in that of VKEGSLCFYMRRRTGQL, -0.627 ± 0.76; in that of ILLVYTLHRCLSSRVNEYQM, 4.22 ± 0.052. Turning to LIDNFS, the amyloid nucleation score is -0.351 ± 0.45. The result for TRCGMEAYMSLDMGLYERPM reads -0.762 ± 0.41; that for DSGLSHSNQWVDFSEYPTRL, “inactive”. For KSTATSYVMPK, the amyloid nucleation score is -0.072 ± 0.25. The result for FYGSEVIMSTDVQGNGEYGA reads -0.791 ± 0.62.

As for FICSAYFECRRDSYEFFVGC, the amyloid nucleation score entry was “inactive”.

For the substance IFVGVNCIQKISKRYGWYLC, the amyloid nucleation score amounted to 0.214 ± 0.77. LICSHTLIRVYVKFF had an amyloid nucleation score of 1.16 ± 0.3. Consider SNPTSVQVRFLLHILLKSVL, for which the amyloid nucleation score was determined as 0.629 ± 0.52.

Regarding TVGNF, the amyloid nucleation score is 1.25 ± 0.47. In the case of CRSCVVSYCGCEYLESLGGK it was 0.525 ± 0.64; in that of TSVIIIGYCI, 5.997 ± 0.034; in that of WGICSTEVSVIEWDWNGYQF, -1.14 ± 1.1.

EHVGVTTVPIPLGMGLTWWC gave an amyloid nucleation score of 0.309 ± 0.16. In the case of TVQDMFIFIFYVYNSFGRYM it was 3.35 ± 0.052; in that of LCHLVFVVSDWRQRLRVFTV, 4.37 ± 0.05. Regarding ISGSRWRLGAIVGTVVEAFG, the amyloid nucleation score is -0.049 ± 0.76.

In turn, PAKERLFRVETGRFRMKGSW returned an amyloid nucleation score of 1.63 ± 0.13.

HNGVIVIDCWRRKFHPNVIS: the amyloid nucleation score is -0.922 ± 1. In the case of WTHVHTRKDSLLSTGNCVPI it was “inactive”.

On to MEPSVIRF, for which the amyloid nucleation score was -0.271 ± 0.55. In the case of NFQMTVRYWVKDGVESQEIN it was 4.192 ± 0.033. For QTTMKVSFSFLMRGGNPQVM, the amyloid nucleation score was found to be 4.56 ± 0.11. RLNCACFRADTVGDYLGVRL: the amyloid nucleation score is -0.158 ± 0.29. For the substance SLTTLCNLTIWDH, the amyloid nucleation score came out at 0.756 ± 0.53. In the case of SGWVLGYSCRKLLLGGLSRG it was 1.48 ± 0.31. On to SLFCVYYNDSSLLSYSVWQI, for which the amyloid nucleation score was 5.75 ± 0.06. The result for LSMTKVLFCTFEITSLSLYQ reads -0.245 ± 0.62; that for IHSSVGYMKTVPKLDDS, 0.207 ± 0.34. The result for RYLIGNSGNYVNGCVEQALR reads -0.365 ± 0.76.

As to LVGMSATYPTHNWFKVRTYF, the amyloid nucleation score is -0.104 ± 0.76. In the case of SSSRS it was 0.66 ± 0.62; in that of PIWFQFGVANTSGLNGVLTS, 0.612 ± 0.34. Take TSRLNMVTSHVLKWCDNRSR: the amyloid nucleation score was -0.516 ± 0.5. NISSLSNNARVIVYFCVRYQ: the amyloid nucleation score result is “inactive”. In the case of CKLISFIRYPPPAYVVSRER it was 2.33 ± 0.13; in that of VTYLGACVYRCCEMSLVFRF, -0.412 ± 0.63; in that of VLLHCRSICGTRLALPLTGR, 1.57 ± 0.4. In the case of GLPRMRSRYTYRGKYVCMCM it was 1.12 ± 0.36; in that of LNHPTGCEYRWEARPNLCEK, -0.553 ± 0.63; in that of SEYVLLT, “inactive”. The result for LVQGNTFE reads 1.19 ± 0.44; that for YSPSVVVDCRSGRDRNLRGY, -0.254 ± 0.55. On to KLGYHLSMIFVFRNVVCPYI, for which the amyloid nucleation score is -0.711 ± 1.1. In turn, SGSGSTAILGKTSGHVCLAI yielded an amyloid nucleation score of 0.713 ± 0.58.

Consider SVEFVLMRLGQLT, for which the amyloid nucleation score was 4.18 ± 0.058. In the case of NPRFLDRCYLYYPGSASRVA it was “inactive”.

GKRLSAFWQVVRSWLHIGGM yielded an amyloid nucleation score of 5.176 ± 0.035. In the case of TIGPNKMRVEAGLEFQKLGK it was -1.23 ± 0.76; in that of VRTTYYNELETFLVLTPAMR, 1.36 ± 0.22; in that of SHGEKSVDDEGSGIGERWQC, 1.27 ± 0.33. In the case of MSAMPDWFPLQWNWRLGQVL it was 1.33 ± 0.18; in that of SRLRRKEYGDWFFYYGWSTN, 0.237 ± 1; in that of QHAFRVHFTVRRVSSFFVR, 5.96 ± 0.086. In the case of LAFRFDVLKWINA it was -0.263 ± 0.27; in that of IVMFQNFVQMDVNYCCFLEV, 6.768 ± 0.04; in that of GNLLLSVITDQL, 4.69 ± 0.072. The substance RSLHFFTSMHMCGRCLNRLF registered an amyloid nucleation score of 0.048 ± 0.45. The result for DIMTYPLRSINRRFKGVGRR reads 4.481 ± 0.039; that for SYSPSVQ, -0.043 ± 0.55.

In turn, SSMLANSMWRSFSVSYGTML had an amyloid nucleation score of 0.929 ± 0.36. In the case of VRDLPMCNPYIRYTLFCQVS it was -0.497 ± 0.45; in that of DCCRWSVLVVIVLAARSSMS, 3.17 ± 0.099. In the case of IHCRCVADCSRS it was -0.097 ± 0.76; in that of DMRFYMVLA, 4.94 ± 0.051.

INCRFMVCWA gave an amyloid nucleation score of 9 ± 0.052. In the case of CFRNWACMSSQRYCMVVRGN it was -1.58 ± 0.54; in that of HRTVRFP, “inactive”; in that of NYRMCFTLHSCYLIRSDNLS, “inactive”. In the case of ARNWVHNCFWSHISFTSIA it was 1.59 ± 0.13. The result for NGRETEFQFTRVDVWNFSVM reads 5.065 ± 0.046; that for YLGICTMFDTGIGEIFTCCT, 5.78 ± 0.069. In the case of CLYCGDLLLRFEYKCRGVNQ, the amyloid nucleation score worked out at 5.15 ± 0.092. The result for FGICLVMRFLWYESSTPWED reads -0.446 ± 1; that for VVVNTYYSGIFMQVFLFL, 6.76 ± 0.037.

TWHSIWREYSGTFTHTYWTD returned an amyloid nucleation score of 0.555 ± 0.62.

On to NMPMQSYTIMVWSLQGMAAG, for which the amyloid nucleation score is 0.705 ± 0.56. The result for SLLFVNNWFSVCRKASCIGN reads 7.787 ± 0.052. The result for RLVRVGYLGRKTQRRSCQKL reads 0.686 ± 0.2; that for LQTFMNVGVFSGDKEYPCVF, 0.662 ± 0.66; that for EMCGATRG, 3.28 ± 0.085. In the case of STSICYFLYRLWSHISLNSL it was “inactive”; in that of TSYIYLMISASPQFLS, 4.04 ± 0.11. CIELFPFAMVNRIFATYSYH: the amyloid nucleation score was -0.352 ± 0.25. The result for GYVGLGFNLTHAFGFGSLAG reads 0.656 ± 0.23; that for GSCSKCNWCINKTAQGFVLS, -0.062 ± 0.45. The result for FLLRIWTACVLFACKYRGIR reads “inactive”. In the case of WGRWSHRWAFHYRACS it was -0.879 ± 0.39; in that of SWPPKAQLMAVARCSAREAD, -0.337 ± 1.1. With DRVNGYIIGRLTAYTSVSKD, the amyloid nucleation score was -0.317 ± 1.1. The result for SLTTLTAVHSCFRLNAWLYF reads 0.477 ± 0.29; that for YIFSIS, -1.26 ± 0.62. In the case of FHGGNFATDWFLWFINWEVA it was -0.259 ± 0.65; in that of YYTPRWCFAYVSRLVWFLLP, “inactive”; in that of STWLS, -0.626 ± 1.1. Consider YWSETCLSMGENEHFNSWKI, for which the amyloid nucleation score result was “inactive”. Consider YLYSAQNIRGRWLFCSMKCD, for which the amyloid nucleation score was -1.03 ± 0.62.
